From patent publication CN111793131A

Tests used:
[1] = molecular target: PF4全抗原 (血小板因子4, platelet factor 4) (Homo sapiens (Human)) (UniProt P02776); test: chemiluminescent ELISA, antigen coated at 2ug/ml, 2ul antibody, HRP goat anti-mouse IgG, luminol (blank 3280)
[2] = molecular target: PF4全抗原 (血小板因子4, platelet factor 4) (Homo sapiens (Human)) (UniProt P02776); test: chemiluminescent ELISA, antigen coated at 2ug/ml, 10ul antibody, HRP goat anti-mouse IgG, luminol (blank 3280)
[3] = molecular target: PF4全抗原 (血小板因子4, platelet factor 4) (Homo sapiens (Human)) (UniProt P02776); test: chemiluminescent ELISA, antigen coated at 2ug/ml, 50ul antibody, HRP goat anti-mouse IgG, luminol (blank 3280)

Sequence of UniProt P02776 (P02776 32-101 limits assumed): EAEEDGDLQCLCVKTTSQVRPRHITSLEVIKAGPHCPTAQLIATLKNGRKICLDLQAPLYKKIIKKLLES

B1: 单克隆抗体AntiPF4_N (杂交瘤来源, 实施例1) (antibody, V domains shown)
VH: EVKLEESGGGLVQPGGSMKLSCVASGFTFSNYWMNWVRQSPEKGLEWVAEIRLKSNNYATHYAESVKGRFTISRDDSKSSVYLQMNNLRAEDTGIYYCTGYDFDYWGQGTTLTVSS
VL: DVVMTQTPLSLPVSLGDQASISCRSSQSLVHNYGNTFLHWYLQKPGQSPKLLIYSTSNLFSGVPDRFSGSGSGTDFTLKISRVEAEDLGVYFCSQSTHVPPTFGGGTKLEI
B1 gave a 发光值 [1] of 63000, a 发光值 [2] of 256000 and a 发光值 [3] of 994000.
